# Patent publication US20210130459A1 (YISSUM RESEARCH DEVELOPMENT COMPANY OF THE HEBREW …, published 2021)
# T1: human Nectin4 expressed on cells (human, UniProt Q96NY8 32-510)
# T1 construct: whole, on cells; also called PVRL4; native human Nectin-4
# T1 sequence (looked up): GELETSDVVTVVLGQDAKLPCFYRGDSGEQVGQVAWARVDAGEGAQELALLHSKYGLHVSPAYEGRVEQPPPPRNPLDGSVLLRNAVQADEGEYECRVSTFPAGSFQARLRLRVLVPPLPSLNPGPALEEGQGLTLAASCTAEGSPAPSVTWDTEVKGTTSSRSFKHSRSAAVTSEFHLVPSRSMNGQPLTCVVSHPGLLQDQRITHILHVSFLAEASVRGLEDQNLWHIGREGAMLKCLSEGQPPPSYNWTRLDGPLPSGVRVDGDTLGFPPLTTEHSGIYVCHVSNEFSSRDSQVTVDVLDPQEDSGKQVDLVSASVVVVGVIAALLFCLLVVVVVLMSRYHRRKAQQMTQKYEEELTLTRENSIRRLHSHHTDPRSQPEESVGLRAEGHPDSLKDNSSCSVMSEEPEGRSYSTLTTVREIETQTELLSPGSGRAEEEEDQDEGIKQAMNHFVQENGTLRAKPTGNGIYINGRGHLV
# T2: murine Nectin4 expressed on cells (murine, UniProt Q8R007 31-508)
# T2 construct: whole, on cells; also called mNectin4
# T2 sequence (looked up): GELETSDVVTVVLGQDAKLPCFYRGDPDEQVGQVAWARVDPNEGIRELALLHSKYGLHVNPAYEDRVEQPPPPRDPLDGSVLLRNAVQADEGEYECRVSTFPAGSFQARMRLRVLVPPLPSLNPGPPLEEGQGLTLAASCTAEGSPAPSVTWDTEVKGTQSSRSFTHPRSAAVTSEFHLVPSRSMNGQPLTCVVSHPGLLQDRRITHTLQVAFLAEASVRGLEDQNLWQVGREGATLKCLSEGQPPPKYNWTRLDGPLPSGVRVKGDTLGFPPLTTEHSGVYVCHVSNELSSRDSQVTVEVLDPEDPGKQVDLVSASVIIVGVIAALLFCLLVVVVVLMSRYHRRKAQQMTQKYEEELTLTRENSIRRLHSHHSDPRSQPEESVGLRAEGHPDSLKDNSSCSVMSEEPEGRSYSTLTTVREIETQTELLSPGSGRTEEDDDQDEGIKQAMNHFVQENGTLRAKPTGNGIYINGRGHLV
# What was measured:
# [1] = target: T1, human Nectin4 expressed on cells; assay: FACS blocking assay, RAJI cells transfected with human Nectin4, 1 µg clone, then 3 µg Nectin1-Ig; blocked ligand Nectin1-Ig
# Procedure: FIGS. 6A-6C Blocking of Nectin4-Nectin1 interactions. (A-B) FACS staining of RAJI cells transfected with human-Nectin4. Cells were pre-incubated with 1 μg of (A) clone hNec4.01, or (B) clone hNec4.05 and then incubated with 3 μg of Nectin1-Ig (black line histograms). Staining without blocking appears as gray line. Grey filled histograms are background control staining of secondary antibody only. (C) Mean Fluorescence Intensity (MFI) values of FACS staining of A and B.
# For staining of human TIGIT-Ig or human Nectin1-Ig, cells were incubated on ice for 1 hour with 3 μg of TIGIT-Ig per 100,000 cells. Detection was performed with a secondary Alexa Fluor 647 anti-human (Jackson ImmunoResearch) for 30 min on ice. For blocking experiments cells were pre-incubated with 1 μg of the indicated antibody prior to the TIGIT-Ig or human Nectin1-Ig staining. In some cases, cells were incubated with 8 ug/ml of the indicated Ab together with human TIGIT-Ig or human Nectin-1-Ig (at 20 ug/ml). Detection of ligand binding was performed with a secondary Alexa Fluor 647 anti-human Ab (Jackson ImmunoResearch).
# The ability to the anti-Nectin4 to block Nectin4-Nectin1 interactions was also determined. […] Cells were Pre-incubated with 1 μg of (FIG. 6A) clone hNec4.01 or (FIG. 6B) clone hNec4.05 and then incubated with 3 μg of Nectin1-Ig (black line). Staining without blocking appears as gray line. […]
# [2] = target: T2, murine Nectin4 expressed on cells; assay: FACS staining of RAJI cells transfected with murine Nectin4
# Procedure: (A) Western blots of RAJI cells transfected with murine Nectin4 (indicated as mNectin4) and detected with commercial anti-murine Nectin4 mAb (Clone 356704 which doesn't work for flow cytometry). Expression was compared to RAJI cells expressing empty vector (indicated as Empty). Staining for hGAPDH was used as loading control. (B-C) FACS staining of RAJI cells transfected with murine Nectin4 (black line histograms). Cells were stained with 0.2 μg of (B) clone hNec4.01 or (C) clone hNec4.05.
# RAJI cells were transfected with murine Nectin4 (black line histograms). First, RAJI cells transfected with murine Nectin4 lysates was used in Western blot assay with a commercial anti murine Nectin4 mAb (Clone 356704) in order to verify murine Nectin4 expression (A). Next, the cells were stained with 0.2 μg of (B) clone hNec4.01 or (C) clone hNec4.05.
# [3] = target: human Nectin4-Ig (Nectin4-Fc fusion protein) (human) (UniProt Q96NY8); assay: microscale thermophoresis with fluorophore-labeled human Nectin4-Ig
# [4] = target: T1, human Nectin4 expressed on cells; assay: FACS titration on MDA-MD-453 cells
# Procedure: (§1) FIGS. 8A-8C Antibody clones hNec4.05 and hNec4.11 binding to cell surface Nectin-4. (A) Antibody binding to Nectin-4 expressed on the human cell line MDA-MD-453 was evaluated by FACS analysis. […] (B) Antibody binding to CHO cells transfected with Cynomolgus (Cyno)-Nectin-4 and analyzed as in A. (C) Antibody binding to CHO cells transfected with murine-Nectin-4 and analyzed as in A. ND—not detected.
# (§2) Binding of murine anti-human Nectin-4 clones hNec4.05 and hNec4.11 to Nectin-4 expressed on the human cell line MDA-MD-453 was evaluated by FACS analysis. […] FIG. 8B depicts antibody binding to CHO cells transfected with Cynomolgus (Cyno)-Nectin-4 and FIG. 8C depicts antibody binding to CHO cells transfected with murine-Nectin-4. […] This may be important for pre-clinical studies of the Ab.
# [5] = target: T2, murine Nectin4 expressed on cells; assay: FACS titration on CHO cells transfected with murine Nectin-4, compared with MDA-MD-453 cells
# Procedure: as §1, §2
# [6] = target: T1, human Nectin4 expressed on cells; assay: FACS titration (20-0.01 nM) on the human cell line titled 'MDA-MD-543' on the sheet (MDA-MD-453 in the legend)
# Procedure: as §1, §2
Binder,binding result [1],binding result [2],Kd [3] [pM],binding result [4],other results
"monoclonal antibody hNec4.05 (antibody, IgG1, V domains shown, also called Nectin4.05; Clone 5) VH: QVQLQQSGPELVKPGASVRISCKASGYTFTTYYIHWVKQRPGQGLEWIGWIYPGNVNTKNNEKFKVKATLTADKSSSTAYMQLSSLTSEDSAVYFCARSNPYVMDYWGQGTSVTVSS VL: SIVMTQTPKFLLVSAGDRVTITCKASQSVSNDVAWYQQKPGQSPKLLIYYASNRYTGVPDRFTGSGYGTDFTFTISAVQAEDLAVYFCQQDYSSPYTFGGGTKLEIK",binds,no binding (tested: 0.2 µg),272,,
"chimeric clone hNec4.05hIgG1 (antibody, V domains shown, also called human IgG1 chimeric Ab clone hNec4.05; chimeric version of hNec4.05) VH: QVQLQQSGPELVKPGASVRISCKASGYTFTTYYIHWVKQRPGQGLEWIGWIYPGNVNTKNNEKFKVKATLTADKSSSTAYMQLSSLTSEDSAVYFCARSNPYVMDYWGQGTSVTVSS VL: SIVMTQTPKFLLVSAGDRVTITCKASQSVSNDVAWYQQKPGQSPKLLIYYASNRYTGVPDRFTGSGYGTDFTFTISAVQAEDLAVYFCQQDYSSPYTFGGGTKLEIK",,,,binds,
"monoclonal antibody hNec4.11 (antibody, V domains shown, also called Nectin4.11; clone 11) VH: QVQLQQSGPELVKPETSVKISCKASGYTFTSYYIHWVKQRPGQGLEWIGWIYPGNVNTKYNERFKGKATLTADKSSNTAHMQLTSLTSEDSAVYFCARSNPYVMDYWGQGTSVTVSS VL: SIVMTQTPKFLLVSAGDRVTITCKASQSVNNDVAWYQQKPGLSPELLMYYASNRFTGVPDRFTGSGYGTDFTFTISSVQAEDLAIYFCQQAYRSPYTFGGGTKLEIQ",,,,,fold EC50 against the EC50 for the human target [5]: ~10 fold; binding result [6]: binds

# The next lines start with results.
binding result [1],binding result [2],Kd [3] [pM],binding result [4],Binder,other results
binds,no binding (tested: 0.2 µg),107,,"monoclonal antibody hNec4.01 (antibody, IgG1, V domains shown, also called Nectin4.01; Clone 1) VH: EVQLQQSGPELVKPGASVKIACRASGYTFTAYNIHWVSQRHGKSLEWIGYIYPNNGGSGYNQKFMNKATLTVDHSSNTAYMELRSLTSEDSAVYYCAIFDYDEAWFIYWGQGTLVTVSA VL: ENVLTQSPEIMSASPGEEVTMTCSASSSVSYMHWFQQKSTISPKLWIYDTSKLASGVPGRFSGSGSGKSYSLTIRNMEAEDVATYYCFQGSGSPYTFGGGTKLEIK",
,,,binds,"chimeric clone hNec4.11hIgG1 (antibody, V domains shown, also called human IgG1 chimeric Ab clone hNec4.11; chimeric version of hNec4.11) VH: QVQLQQSGPELVKPETSVKISCKASGYTFTSYYIHWVKQRPGQGLEWIGWIYPGNVNTKYNERFKGKATLTADKSSNTAHMQLTSLTSEDSAVYFCARSNPYVMDYWGQGTSVTVSS VL: SIVMTQTPKFLLVSAGDRVTITCKASQSVNNDVAWYQQKPGLSPELLMYYASNRFTGVPDRFTGSGYGTDFTFTISSVQAEDLAIYFCQQAYRSPYTFGGGTKLEIQ",
